The values below come from paper PMC5040590.

Assay [1] deals with PDZ123 domain-HaloTag fusion on HaloLink resin (PDZ123 affinity resin) (UniProt Q62108). The assay is described as follows: PDZ123 affinity resin binding (pull-down, eluate quantified). The settings on record: phosphorylated 0.5 min with 10 nM CaMKII, 0.7 mM CaCl2/3.4 μM CaM; resin 60 min at 25°C; n = 4; parent: est. 0.0079; read off a plot.
Assay [2] concerns the target calmodulin (CaM), with Ca2+ (UniProt P62157). Nature of the assay: SPR; CaM amine-coupled to a CM5 chip (50 RU); synGAP injected in HBS-EP+ with 10 mM CaCl2, 25°C, 100 µl/min; equilibrium analysis.
Assay [3] concerns the target PDZ123 domain-HaloTag fusion on HaloLink resin (PDZ123 affinity resin) (mouse) (UniProt Q62108). Nature of the assay: pull-down; PDZ domain-HaloTag fusions on HaloLink resin (20 µl); r-synGAP-α1 500 nM, 200 µl, 60 min, 25°C; 25 mM Tris pH 7.0, 150 mM NaCl, 1 mM MgCl2, 0.5 mM TCEP, 0.2% Tergitol, 0.5 mM EDTA; bound protein eluted, SDS-PAGE, Gel Code Blue, quantified.
For assay [4], the target named is PDZ3 of PSD-95 (residues 302-402), soluble recombinant (mouse) (UniProt Q62108). Nature of the assay: SPR; conventional Biacore assay: varying concentrations of r-synGAP-α1 applied to a chip with immobilised PDZ domain; one experiment.
The target in assay [5] is CaM-Sepharose 4B (calmodulin on Sepharose resin) (UniProt P62157). Nature of the assay: pull-down; equilibrium binding of purified synGAP (1-500 nM, 300 µl) to 50 µl CaM-Sepharose 4B, 60 min; 50 mM Tris pH 7.5, 200 mM NaCl, 5 mM TCEP, 2 mM CaCl2; bound protein by quantitative immunoblot; hyperbolic fit.
For assay [6], the target named is r-synGAP-α1 (soluble, recombinant synGAP-α1, residues 103-1293) (rat). Nature of the assay: SPR; 'competition in solution': 25 nM r-synGAP-α1 pre-equilibrated with 0-10 µM soluble PDZ domain; free r-synGAP-α1 captured on the same PDZ domain amine-coupled to a CM5 chip; Biacore T200, HBS-EP+, 25°C; single-site fit.
For assay [7] the target is unchanged.
The target is the same in assay [8]. The assay is described as follows: pull-down; as a1, with or without Ca2+/CaM during the incubation with PDZ resin (legend: 0.7 mM CaCl2/3.4 μM CaM; methods: 2.5 µM CaM and 0.5 mM CaCl2); 500 nM r-synGAP-α1, 60 min, 25°C.

“r-synGAP-α1 phosphorylated by CaMKII for 0.5 min S1093D; S1123D”: the response (pmol r-synGAP-α1/pmol PDZ domain) in assay [1] was found to be 0.0083.

“r-synGAP-α1 phosphorylated by CaMKII for 0.5 min S1123D”: the response (pmol r-synGAP-α1/pmol PDZ domain) in assay [1] turned out to be 0.0099.

Take “r-synGAP-α1 (soluble, recombinant synGAP-α1, residues 103-1293) (domain or fragment)”: the Kd was 0.009 µM in assay [2], 0.73 µM in assay [4] and 0.031 µM in assay [5]. Besides, the amount bound per individual PDZ domain, relative to PDZ1 or PDZ2 alone in assay [3] was determined as 4 fold. Further, the amount bound per individual PDZ domain, relative to PDZ3 alone in assay [3] is 2 fold.

Regarding “r-synGAP-α1 phosphorylated by PLK2 for 10 min (domain or fragment)”, the decrease of binding relative to unphosphorylated r-synGAP-α1 in assay [3] worked out at 40%.

“PDZ2 of PSD-95 (residues 155-249), soluble recombinant (from UniProt Q62108 155-249) (domain or fragment)”: the Kd in assay [6] came to 1.5 µM.

As to “r-synGAP-α1 phosphorylated by CaMKII for 0.5 min S1093D; S1123D; S1283D”, the response (pmol r-synGAP-α1/pmol PDZ domain) in assay [1] turned out to be 0.014.

Regarding “r-synGAP-α1 phosphorylated by CaMKII for 0.5 min S1283D”, the response (pmol r-synGAP-α1/pmol PDZ domain) in assay [1] came to 0.011.

For “calmodulin (CaM), with Ca2+ (from UniProt P62157 1-149) (natural protein)”, the rate and stoichiometry of phosphorylation of r-synGAP-α1 by CDK5/p35 or CDK5/p25 in the presence of Ca2+/CaM (0.7 mM CaCl2, 3.4 μM CaM) in assay [7] was 2 fold. In addition, the percent reduction of binding of r-synGAP-α1 to PDZ3 with Ca2+/CaM in assay [8] came out at 25%.

On to “PDZ3 of PSD-95 (residues 302-402), soluble recombinant (from UniProt Q62108 302-402) (domain or fragment)”, for which, in assay [6], the Kd was found to be 0.62 µM.
